Source: patent publication US20220073643A1 (NANJING GENSCRIPT BIOTECH, published 2022)
Numbering of substitutions follows the chain as printed. Values joined by “and” are separate entries in the source; they are usually repeats but may differ in a detail not shown here. Equal entries are not always repeated. Where two headings read alike, the source gives them in different places. Values belong to the binder of their own block, whether it stands above or below them.

What was measured:
human Claudin18.2 [1] = molecular target: T1, human Claudin18.2 (human); assay: FACS, Claudin18.2-HEK293 cells
T1 construct: also called CLDN18.2
Experimental: (§1) The binding of chimeric antibodies to Claudin18.2 expressed on HEK293 cells was determine by FACS analysis. Briefly, HEK293 cells expressing human Claudin18.2 as prepared in the foregoing Example were harvested and incubated with anti-Claudin18.2 mAbs at 4° C. for 40 min, followed by fluorophore (iFluor 647)-labeled goat […] IgG (H+L) secondary antibodies at 4° C. for 0.5 hour. The samples were then analyzed by flow cytometry.

human Claudin18.2 [2] = molecular target: T1, human Claudin18.2; assay: cell-based or functional assay
human Claudin18.2 [3] = molecular target: T1, human Claudin18.2; assay: cell-based or functional assay; remark: listed apart in the source
human Claudin18.2 [4] = molecular target: T1, human Claudin18.2; assay: FACS, Claudin18.2-HEK293 cells; remark: listed apart in the source
human Claudin18.2 [5] = molecular target: T1, human Claudin18.2; assay: FACS, Claudin18.2-HEK293 cells; remark: listed apart in the source
Experimental: as §1

B1: chimeric 417A6F11 (antibody, human IgG1, kappa, V domains shown)
VH: EVQLQQSGPELVKPGASMKISCKASGYSFTGYTMNWVKQSHGKNLEWIGLINPYNGGTSYNQKFKGKATLTVDKSSSTAYMELLSLTSEDSAVYYCARGDYWGQGTTLTVSS
VL: DIVMTQSPSSLTVTAGEKVTMSCKSSQSLLNSGNQKNYLTWYQQKPGQPPKLLIYWASTRESGVPDRFTGSGSGTDFTLTISSVQAEDLAVYYCQNDYSYPTFGAGTKLELKR
notes: chimeric, human IgG1/kappa constant regions
- EC50 (human Claudin18.2 [1]): 2.48 nM

B3: chimeric 412B6E4 (antibody, human IgG1, kappa, V domains shown)
VH: DVQLVESGGGLVQPGGSRKLSCAASGFTFSSFGVHWVRQAPEKGLEWVAYISSGSSTIYYAHSVKGRFTISRDNPKNTLFLQMTSLGSEDTATYYCARFYYGNSFAYWGQGTLVTVSA
VL: DIVMTQSPSSLTVTAGEKVTMSCKSSQSLLNSGNQKNYLTWYQQKPGQPPKMLIYWASTRESGVPDRFTGSGSGTDFTLTISSVQAEDLAVYYCQNAYTYPLTFGAGTRLELKR
notes: chimeric, human IgG1/kappa constant regions; also called 412B6E4-Chimeric
- ADCC % Relative activity (human Claudin18.2 [2]): 535%
- ADCC EC50 (human Claudin18.2 [2]): 0.00494 µg/mL
- EC50 (human Claudin18.2 [1]): 0.677 nM
- CDC % Relative activity (human Claudin18.2 [3]): 2020%
- CDC EC50 (human Claudin18.2 [3]): 0.105 µg/mL
- EC50 (human Claudin18.2 [4]): 0.555 µg/mL
- Span (human Claudin18.2 [4]): 87900

B4: chimeric 419B5G9 (antibody, human IgG1, kappa, V domains shown)
VH: DVQLVESGGGLVQPGGSRKLSCAASGFTFSTFGMHWVRQAPEKGLEWVAYISGGSTTIFYADTVKGRFTISRDNPKNTLFLQMTSVRSEDTAMYYCARFYYGNSFAYWGPGTLVTVST
VL: B3 VL with T99S, R109K
notes: as for B1
- ADCC % Relative activity (human Claudin18.2 [2]): 332%
- ADCC EC50 (human Claudin18.2 [2]): 0.00794 µg/mL
- EC50 (human Claudin18.2 [1]): 1.23 nM
- CDC % Relative activity (human Claudin18.2 [3]): 2000%
- CDC EC50 (human Claudin18.2 [3]): 0.106 µg/mL

Further binders by falling EC50 (human Claudin18.2 [1]), results first:

- ADCC % Relative activity (human Claudin18.2 [2]): 144%
- ADCC EC50 (human Claudin18.2 [2]): 0.0184 µg/mL
- EC50 (human Claudin18.2 [1]): 0.908 nM
- CDC % Relative activity (human Claudin18.2 [3]): 2430%
- CDC EC50 (human Claudin18.2 [3]): 0.0874 µg/mL
B7: chimeric 429H6C5 (antibody, human IgG1, kappa, V domains shown)
VH: B3 VH with V34M, G44E, S63T, Q82R, T93M, A97V, A106V, Y107N
VL: B3 VL with V13A, T69A, T99I
notes: as for B1

- ADCC % Relative activity (human Claudin18.2 [2]): 677%
- ADCC EC50 (human Claudin18.2 [2]): 0.0039 µg/mL
- EC50 (human Claudin18.2 [1]): 0.778 nM
- CDC % Relative activity (human Claudin18.2 [3]): 2810%
- CDC EC50 (human Claudin18.2 [3]): 0.0756 µg/mL
- EC50 (human Claudin18.2 [4]): 0.843 µg/mL
- Span (human Claudin18.2 [4]): 79100
B5: chimeric 410H6H3 (antibody, human IgG1, kappa, V domains shown)
VH: DVLLVESGGGLVQPGGSRKLSCAASGFTFSSSGMHWVRQAPEKGLEWVAYISSGSNTIYYADTLKGRFTISRDNPKNTLFLQMTSLRSEDTAMYYCARIYYGNSFVYWGQGTLVTVSA
VL: B3 VL with T20I, T69R, A97N, T99Y, A106T, R109K, E111A
notes: chimeric, human IgG1/kappa constant regions; also called 410H6H3-Chimeric

- ADCC % Relative activity (human Claudin18.2 [2]): 318%
- ADCC EC50 (human Claudin18.2 [2]): 0.0111 µg/mL
- EC50 (human Claudin18.2 [1]): 0.687 nM
- CDC % Relative activity (human Claudin18.2 [3]): 2030%
- CDC EC50 (human Claudin18.2 [3]): 0.105 µg/mL
B2: chimeric 393C2C5 (antibody, human IgG1, kappa, V domains shown)
VH: B3 VH with V34M, T57P, H62D, S63T, G87R, T93M, Y95F, R98T
VL: B3 VL with S28T, P46S, M52L, T99S, L102V, A106S, R109K, L110V
notes: chimeric, human IgG1/kappa constant regions; also called 393C2C5A

- ADCC % Relative activity (human Claudin18.2 [2]): 25.7%
- ADCC EC50 (human Claudin18.2 [2]): 0.103 µg/mL
- EC50 (human Claudin18.2 [1]): 0.65 nM
- CDC % Relative activity (human Claudin18.2 [3]): 3.04%
- CDC EC50 (human Claudin18.2 [3]): 69.9 µg/mL
B6: chimeric 418D2F9 (antibody, human IgG1, kappa, V domains shown)
VH: B5 VH with L3Q, S32F, S52N, S53T, N56S, L64V
VL: B3 VL with M52L, A97D, T99S, R109K
notes: as for B1

- EC50 (human Claudin18.2 [1]): 0.517 nM
- EC50 (human Claudin18.2 [5]): 0.596 nM
- CDC EC50 (human Claudin18.2 [3]): 2.7 µg/mL and 2.3 µg/mL and 2.12 µg/mL
B8: IMAB362 analog (Claudiximab, Zolbetuximab) (antibody, V domains shown)
VH: QVQLQQPGAELVRPGASVKLSCKASGYTFTSYWINWVKQRPGQGLEWIGNIYPSDSYTNYNQKFKDKATLTVDKSSSTAYMQLSSPTSEDSAVYYCTRSWRGNSFDYWGQGTTLTVSS
VL: DIVMTQSPSSLTVTAGEKVTMSCKSSQSLLNSGNQKNYLTWYQQKPGQPPKLLIYWASTRESGVPDRFTGSGSGTDFTLTISSVQAEDLAVYYCQNDYSYPFTFGSGTKLEIK
notes: in-house prepared analog; chimeric IgG1
